Laboratory results from article PMC11446282.

B1: AMOTL2 Q36: AMOTL2, Q36 to alanine (protein, UniProt Q9Y2J4 1-779, looked up, variant Q36A)
Angiomotin-like protein 2: MRTLEDSSGTVLHRLIQEQLRYGNLTETRTLLAIQAQALRGGAGTGGTGSPQASLEILAPEDSQVLQQATRQEPQGQEHQGGENHLAENTLYRLCPQPSKGEELPTYEEAKAHSQYYAAQQAGTRPHAGDRDPRGAPGGSRRQDEALRELRHGHVRSLSERLLQLSLERNGARAPSHMSSSHSFPQLARNQQGPPLRGPPAEGPESRGPPPQYPHVVLAHETTTAVTDPRYRARGSPHFQHAEVRILQAQVPPVFLQQQQQYQYLQQSQEHPPPPHPAALGHGPLSSLSPPAVEGPVSAQASSATSGSAHLAQMEAVLRENARLQRDNERLQRELESSAEKAGRIEKLESEIQRLSEAHESLTRASSKREALEKTMRNKMDSEMRRLQDFNRDLRERLESANRRLASKTQEAQAGSQDMVAKLLAQSYEQQQEQEKLEREMALLRGAIEDQRRRAELLEQALGNAQGRAARAEEELRKKQAYVEKVERLQQALGQLQAACEKREQLELRLRTRLEQELKALRAQQRQAGAPGGSSGSGGSPELSALRLSEQLREKEEQILALEADMTKWEQKYLEERAMRQFAMDAAATAAAQRDTTLIRHSPQPSPSSSFNEGLLTGGHRHQEMESRLKVLHAQILEKDAVIKVLQQRSRRDPGKAIQGSLRPAKSVPSVFAAAAAGTQGWQGLSSSERQTADAPARLTTDRAPTEEPVVTAPPAAHAKHGSRDGSTQTEGPPDSTSTCLPPEPDSLLGCSSSQRAASLDSVATSRVQDLSDMVEILI
B2: AMOTL2 V11: AMOTL2, V11 to alanine (protein, UniProt Q9Y2J4 1-779, looked up, variant V11A)
Angiomotin-like protein 2: MRTLEDSSGTALHRLIQEQLRYGNLTETRTLLAIQQQALRGGAGTGGTGSPQASLEILAPEDSQVLQQATRQEPQGQEHQGGENHLAENTLYRLCPQPSKGEELPTYEEAKAHSQYYAAQQAGTRPHAGDRDPRGAPGGSRRQDEALRELRHGHVRSLSERLLQLSLERNGARAPSHMSSSHSFPQLARNQQGPPLRGPPAEGPESRGPPPQYPHVVLAHETTTAVTDPRYRARGSPHFQHAEVRILQAQVPPVFLQQQQQYQYLQQSQEHPPPPHPAALGHGPLSSLSPPAVEGPVSAQASSATSGSAHLAQMEAVLRENARLQRDNERLQRELESSAEKAGRIEKLESEIQRLSEAHESLTRASSKREALEKTMRNKMDSEMRRLQDFNRDLRERLESANRRLASKTQEAQAGSQDMVAKLLAQSYEQQQEQEKLEREMALLRGAIEDQRRRAELLEQALGNAQGRAARAEEELRKKQAYVEKVERLQQALGQLQAACEKREQLELRLRTRLEQELKALRAQQRQAGAPGGSSGSGGSPELSALRLSEQLREKEEQILALEADMTKWEQKYLEERAMRQFAMDAAATAAAQRDTTLIRHSPQPSPSSSFNEGLLTGGHRHQEMESRLKVLHAQILEKDAVIKVLQQRSRRDPGKAIQGSLRPAKSVPSVFAAAAAGTQGWQGLSSSERQTADAPARLTTDRAPTEEPVVTAPPAAHAKHGSRDGSTQTEGPPDSTSTCLPPEPDSLLGCSSSQRAASLDSVATSRVQDLSDMVEILI
B3: AMOTL2 L12: AMOTL2, L12 to alanine (protein, UniProt Q9Y2J4 1-779, looked up, variant L12A)
Angiomotin-like protein 2: MRTLEDSSGTVAHRLIQEQLRYGNLTETRTLLAIQQQALRGGAGTGGTGSPQASLEILAPEDSQVLQQATRQEPQGQEHQGGENHLAENTLYRLCPQPSKGEELPTYEEAKAHSQYYAAQQAGTRPHAGDRDPRGAPGGSRRQDEALRELRHGHVRSLSERLLQLSLERNGARAPSHMSSSHSFPQLARNQQGPPLRGPPAEGPESRGPPPQYPHVVLAHETTTAVTDPRYRARGSPHFQHAEVRILQAQVPPVFLQQQQQYQYLQQSQEHPPPPHPAALGHGPLSSLSPPAVEGPVSAQASSATSGSAHLAQMEAVLRENARLQRDNERLQRELESSAEKAGRIEKLESEIQRLSEAHESLTRASSKREALEKTMRNKMDSEMRRLQDFNRDLRERLESANRRLASKTQEAQAGSQDMVAKLLAQSYEQQQEQEKLEREMALLRGAIEDQRRRAELLEQALGNAQGRAARAEEELRKKQAYVEKVERLQQALGQLQAACEKREQLELRLRTRLEQELKALRAQQRQAGAPGGSSGSGGSPELSALRLSEQLREKEEQILALEADMTKWEQKYLEERAMRQFAMDAAATAAAQRDTTLIRHSPQPSPSSSFNEGLLTGGHRHQEMESRLKVLHAQILEKDAVIKVLQQRSRRDPGKAIQGSLRPAKSVPSVFAAAAAGTQGWQGLSSSERQTADAPARLTTDRAPTEEPVVTAPPAAHAKHGSRDGSTQTEGPPDSTSTCLPPEPDSLLGCSSSQRAASLDSVATSRVQDLSDMVEILI
B4: AMOTL2 T10: AMOTL2, T10 to alanine (protein, UniProt Q9Y2J4 1-779, looked up, variant T10A)
Angiomotin-like protein 2: MRTLEDSSGAVLHRLIQEQLRYGNLTETRTLLAIQQQALRGGAGTGGTGSPQASLEILAPEDSQVLQQATRQEPQGQEHQGGENHLAENTLYRLCPQPSKGEELPTYEEAKAHSQYYAAQQAGTRPHAGDRDPRGAPGGSRRQDEALRELRHGHVRSLSERLLQLSLERNGARAPSHMSSSHSFPQLARNQQGPPLRGPPAEGPESRGPPPQYPHVVLAHETTTAVTDPRYRARGSPHFQHAEVRILQAQVPPVFLQQQQQYQYLQQSQEHPPPPHPAALGHGPLSSLSPPAVEGPVSAQASSATSGSAHLAQMEAVLRENARLQRDNERLQRELESSAEKAGRIEKLESEIQRLSEAHESLTRASSKREALEKTMRNKMDSEMRRLQDFNRDLRERLESANRRLASKTQEAQAGSQDMVAKLLAQSYEQQQEQEKLEREMALLRGAIEDQRRRAELLEQALGNAQGRAARAEEELRKKQAYVEKVERLQQALGQLQAACEKREQLELRLRTRLEQELKALRAQQRQAGAPGGSSGSGGSPELSALRLSEQLREKEEQILALEADMTKWEQKYLEERAMRQFAMDAAATAAAQRDTTLIRHSPQPSPSSSFNEGLLTGGHRHQEMESRLKVLHAQILEKDAVIKVLQQRSRRDPGKAIQGSLRPAKSVPSVFAAAAAGTQGWQGLSSSERQTADAPARLTTDRAPTEEPVVTAPPAAHAKHGSRDGSTQTEGPPDSTSTCLPPEPDSLLGCSSSQRAASLDSVATSRVQDLSDMVEILI
B5: AMOTL2 Q37: AMOTL2, Q37 to alanine (protein, UniProt Q9Y2J4 1-779, looked up, variant Q37A)
Angiomotin-like protein 2: MRTLEDSSGTVLHRLIQEQLRYGNLTETRTLLAIQQAALRGGAGTGGTGSPQASLEILAPEDSQVLQQATRQEPQGQEHQGGENHLAENTLYRLCPQPSKGEELPTYEEAKAHSQYYAAQQAGTRPHAGDRDPRGAPGGSRRQDEALRELRHGHVRSLSERLLQLSLERNGARAPSHMSSSHSFPQLARNQQGPPLRGPPAEGPESRGPPPQYPHVVLAHETTTAVTDPRYRARGSPHFQHAEVRILQAQVPPVFLQQQQQYQYLQQSQEHPPPPHPAALGHGPLSSLSPPAVEGPVSAQASSATSGSAHLAQMEAVLRENARLQRDNERLQRELESSAEKAGRIEKLESEIQRLSEAHESLTRASSKREALEKTMRNKMDSEMRRLQDFNRDLRERLESANRRLASKTQEAQAGSQDMVAKLLAQSYEQQQEQEKLEREMALLRGAIEDQRRRAELLEQALGNAQGRAARAEEELRKKQAYVEKVERLQQALGQLQAACEKREQLELRLRTRLEQELKALRAQQRQAGAPGGSSGSGGSPELSALRLSEQLREKEEQILALEADMTKWEQKYLEERAMRQFAMDAAATAAAQRDTTLIRHSPQPSPSSSFNEGLLTGGHRHQEMESRLKVLHAQILEKDAVIKVLQQRSRRDPGKAIQGSLRPAKSVPSVFAAAAAGTQGWQGLSSSERQTADAPARLTTDRAPTEEPVVTAPPAAHAKHGSRDGSTQTEGPPDSTSTCLPPEPDSLLGCSSSQRAASLDSVATSRVQDLSDMVEILI

system: PP2A-B55α; assay: Single alanine mutational scan, YFP-tagged interactors immunoprecipitated from HeLa cells, Western blot; type: binding, human; settings: single alanine mutant of YFP-tagged AMOTL2

**Q.** B1 was tested. Which Experimental % binding did it give?
**A.** 76%

**Q.** For B2, which Experimental % binding is on record?
**A.** 114%

**Q.** For B3, which Experimental % binding is on record?
**A.** 88%

**Q.** B4 was tested. Which Experimental % binding did it give?
**A.** 104%

**Q.** With B5 as the molecule, how does the Experimental % binding read?
**A.** 44%
